Here are results for one molecule from patent US20200397860A1, “SLIT AND BONE GROWTH MODULATION” (Cornell University, priority 2018, published 2020).

Experiment [1] deals with open femoral midshaft fracture. Nature of the experiment: Open femoral midshaft fracture model, systemic IV SLIT3. Format: in vivo, mouse. Here is the method: Micro-CT (μCT) analysis was conducted on a Scanco Medical μCT 35 system at the Citigroup Biomedical Imaging Core using the previously described parameters. (Shim et al. 2013). μCT analysis was performed by an investigator blinded to the genotypes of the animals under analysis.
For histological analysis, hindlimbs were dissected from the mice or human callus, fixed in 10% neutral buffered formalin for 24-48 hours, and decalcified by daily changes of 15% tetrasodium EDTA for 2 weeks. Tissues were dehydrated by passage through an ethanol series, cleared twice in xylene, embedded in paraffin, and sectioned at 7 μm thickness. Decalcified sections were stained with hematoxylin and eosin (H&E). We incubated the slides with primary antibody to mouse EMCN (sc-65495, Santa Cruz, 1:200) and human Slit3 (ab198726, Abcam 1:50) at 37° C. for 2 h and subsequently used a horseradish peroxidase-streptavidin detection system (Dako) to detect the immunoreactivity. The number and volume of positively stained vessels was measured in four random visual fields of callus in 3 sequential sections per mouse in each group.
All surgical procedures were performed under isoflurane (1-4%) anesthesia via nosecone. Surgical sites were sterilized using a betadine/iodide/isopropanol prep after hair removal by a clipper with a #40 blade and depilatory cream (Nair). After surgery, the visceral lining or muscle was sutured with absorbable Ethicon vicryl sutures (VWR, Cat #95057-014) prior to closing the skin with wound clips that were then removed 2 weeks post-operatively. Animals received intraperitoneal Buprenex (0.5 mg/kg) and oral Meloxicam (2.0 mg/kg) as analgesia prior to surgery and once every 24 hours post-surgery for 3 days. All surgical procedures are approved by the IACUC of Weill Cornell Medical College (Protocol #2012-0005).
Bone fracture was done following previously described protocols with modifications (Bradaschia-Correa et al. 2017). In brief, after anesthesia and surgical site sterilization, an incision above the right anterolateral femur was made. The femur and patella were then exposed, and a 27-gauge syringe needle was inserted parallel with the long axis of the femur through the patellar groove into the marrow cavity. The needle was then removed, and a single cut was made in the middle of the femoral diaphysis using a dremel saw with a diamond thin cutting wheel (VWR, Cat #100230-724). A blunt 25-gauge needle was then inserted into the marrow space through the hole made in the patella to stabilize the fracture. The needle was then trimmed to avoid it from projecting into the patella-femoral joint space. Muscle was then placed over the osteotomy site and stitched with absorbable sutures prior to closing the skin with wound clips.
Alternatively, the gelatin sponge was manually soaked with SLITS (300 ug/ml in PBS) or vehicle for 1 hour on ice and immediately placed to the surgical fracture area. All animals were euthanized by CO2 at time points indicated.
All bones were tested to failure using four-point bending on a precision electromagnetic-based load frame (EnduraTEC ELF 3200, Bose Corporation, Minnetonka, MC). Femurs were placed with the posterior surface on the lower supports, spaced 9.9 mm apart. The upper supports were spaced 3.3 ram. Load was applied at a rate of 0.1 mm/s until failure occurred. The failure load (N) and bending stiffness […] within the elastic range were calculated from the force-displacement curves and the four-point dimensions.

Experiment [2] deals with bone marrow derived EPOCs. Nature of the experiment: Alamar blue based proliferation assay. Format: cell-based, mouse. Here is the method:
Mouse bone marrow derived late-stage endothelial progenitor outgrowth cells (EPOCs) were obtained from BioChain (7030031) and cultured in growth medium (BioChain Z7030035) as described previously (Xie et al. 2014). Endothelial cell migration assay was set up in Trans well-24 well plates with 8-um pore filters. Briefly, 1×10^5 cells/well after 1-hour serum starvation were seeded in the upper chamber, then incubated with conditioned medium from osteoblasts and control in the lower chambers for a further 3 h. The cells in the upper surface of each filter were removed with cotton swabs. The cells that migrated into the lower surface were fixed with 4% PFA for 30 min and then stained with crystal violet. The cell numbers were quantified by counting a centered microscope field per each filter (5 wells for each condition). […] The width of the wound area was quantitatively evaluated using ImageJ (see website at rsb.info.uih.gov/ij/download.html). […] At 0, 24, 48 hours after seeding, cells were incubated with 10-fold diluted Alamar Blue solution (Thermo Fisher) and the supernatant was evaluated with a spectrophotometer (Thermo) (5 wells for each condition). […] Alter 5 hours incubation at 37° C., the number of tube branches each well was observed and quantified by counting four random fields per well with microscopy (5 wells for each condition).

Experiment [3] concerns bone marrow macrophages (BMMs). Nature of the experiment: In vitro osteoclast formation assay with RANKL and recombinant SLIT3. Type of experiment: cell-based, mouse. Here is the method: Murine bone marrow cells were flushed from the femur and tibia of mice and cultured in petri dishes in α-MEM medium with 10% FBS and 20 ng/ml of rM-CSF. Nonadherent cells were replated into tissue culture dishes and cultured in the same medium for 3 d to obtain osteoclast precursors. The osteoclast precursors then differentiated into osteoclasts in the presence of human RAMKL (50 ng/ml; PeproTech) and M-CSF for 3 days. Peripheral blood mononuclear cells from the whole blood of healthy volunteers were isolated by density gradient centrifugation using Ficoll (Invitrogen, Carlsbad, Calif.). CD14-positive cells were purified from fresh PBMCs using anti-CD14 magnetic beads (Miltenyi Biotec, Auburn, Calif.), as recommended by the manufacturer. Human monocytes were cultured in a-MEM with 10% FBS in the presence of M-CSF (20 ng/ml; PeproTech, Rocky Hill, N.J.) for 2 d to obtain monocyte-derived macrophages. Experiments with human cells were approved by the Hospital for Special Surgery Institutional Review Board.
Osteoclast culture, differentiation assays. Western Molting and qPCR. In vitro primary osteoclast cultures, quantitative PCR, Western blotting, and TRAP staining were performed as previously described. Primary antibodies were specific for SLIT3. (1:1,000; Cell Signaling) and HSP90 (1:2,000; Sigma).

In experiment [4] the test system is murine ovariectomy (OVX) model of postmenopausal osteoporosis. Nature of the experiment: Ovariectomy (OVX) induced bone loss, therapeutic model after osteopenia onset. Type of experiment: in vivo, mouse.
Where [5] appears, read: IV twice weekly, 21 days after fracture.
The mark [6] stands for this setting: biomechanical testing, 21 days after fracture.
[7] abbreviates: treatment initiated eight weeks after OVX.

Entries after “also recorded” stand apart in the source; their conditions may differ.

B1: SLIT3: SLIT3 recombinant protein (R&D); secreted ligand of ROBO receptors (protein, UniProt O75094 34-1523, looked up)
Slit homolog 3 protein: CPTKCTCSAASVDCHGLGLRAVPRGIPRNAERLDLDRNNITRITKMDFAGLKNLRVLHLEDNQVSVIERGAFQDLKQLERLRLNKNKLQVLPELLFQSTPKLTRLDLSENQIQGIPRKAFRGITDVKNLQLDNNHISCIEDGAFRALRDLEILTLNNNNISRILVTSFNHMPKIRTLRLHSNHLYCDCHLAWLSDWLRQRRTVGQFTLCMAPVHLRGFNVADVQKKEYVCPAPHSEPPSCNANSISCPSPCTCSNNIVDCRGKGLMEIPANLPEGIVEIRLEQNSIKAIPAGAFTQYKKLKRIDISKNQISDIAPDAFQGLKSLTSLVLYGNKITEIVKGLFDGLVSLQLLLLNANKINCLRVNTFQDLQNLNLLSLYDNKLQTISKGLFAPLQSIQTLHLAQNPFVCDCHLKWLADYLQDNPIETSGARCSSPRRLANKRISQIKSKKFRCSGSEDYRSRFSSECFMDLVCPEKCRCEGTIVDCSNQKLVRIPSHLPEYVTDLRLNDNEVSVLEATGIFKKLPNLRKINLSNNKIKEVREGAFDGAASVQELMLTGNQLETVHGRVFRGLSGLKTLMLRSNLIGCVSNDTFAGLSSVRLLSLYDNRITTITPGAFTTLVSLSTINLLSNPFNCNCHLAWLGKWLRKRRIVSGNPRCQKPFFLKEIPIQDVAIQDFTCDGNEESSCQLSPRCPEQCTCMETVVRCSNKGLRALPRGMPKDVTELYLEGNHLTAVPRELSALRHLTLIDLSNNSISMLTNYTFSNMSHLSTLILSYNRLRCIPVHAFNGLRSLRVLTLHGNDISSVPEGSFNDLTSLSHLALGTNPLHCDCSLRWLSEWVKAGYKEPGIARCSSPEPMADRLLLTTPTHRFQCKGPVDINIVAKCNACLSSPCKNNGTCTQDPVELYRCACPYSYKGKDCTVPINTCIQNPCQHGGTCHLSDSHKDGFSCSCPLGFEGQRCEINPDDCEDNDCENNATCVDGINNYVCICPPNYTGELCDEVIDHCVPELNLCQHEAKCIPLDKGFSCECVPGYSGKLCETDNDDCVAHKCRHGAQCVDTINGYTCTCPQGFSGPFCEHPPPMVLLQTSPCDQYECQNGAQCIVVQQEPTCRCPPGFAGPRCEKLITVNFVGKDSYVELASAKVRPQANISLQVATDKDNGILLYKGDNDPLALELYQGHVRLVYDSLSSPPTTVYSVETVNDGQFHSVELVTLNQTLNLVVDKGTPKSLGKLQKQPAVGINSPLYLGGIPTSTGLSALRQGTDRPLGGFHGCIHEVRINNELQDFKALPPQSLGVSPGCKSCTVCKHGLCRSVEKDSVVCECRPGWTGPLCDQEARDPCLGHRCHHGKCVATGTSYMCKCAEGYGGDLCDNKNDSANACSAFKCHHGQCHISDQGEPYCLCQPGFSGEHCQQENPCLGQVVREVIRRQKGYASCATASKVPIMECRGGCGPQCCQPTRSKRRKYVFQCTDGSSFVEEVERHLECGCLACS
As to B1, the “bone fracture healing (μCT and histological analysis)” value in experiment [1] (5-week-old male mice, IV twice weekly, 21 days) was “enhancement of bone fracture healing; also recorded: enhances bone-fracture healing”. In experiment [1] (setting [5]), the “bone volume in the callus area relative to controls” value was around 2 fold and the “vascularization of fracture area including CD31hiEMCNhi endothelium” value was “increased”. Moreover, in experiment [1] (setting [6]), the “maximum load sustained by the fracture callus” value was “significantly enhanced” and the “stiffness of the fracture callus” value is “significantly enhanced”. Moreover, in experiment [2], the proliferation entry was “modestly increased the proliferation”. Further, the “number of TRAP positive osteoclasts compared with controls” value in experiment [3] (BMMs with RANKL and recombinant SLIT3, three days) is “no significant changes”. Moreover, the “expression of osteoclast marker genes” value in experiment [3] (BMMs with RANKL, three days) was “modestly inhibited”. For the same molecule, in experiment [4] (IV twice weekly initiated eight weeks after OVX), the “bone loss after onset of OVX-induced osteopenia” value is “significantly reversed bone loss; also recorded: therapeutic effects”. Besides, in experiment [4] (setting [7]), the cortical thickness entry was “increased” and the “trabecular BV/TV” value is “increased”. For the same molecule, the CD31hiEMCNhi endothelial cells entry in experiment [4] (treatment initiated eight weeks after OVX, femur) is “significantly increased”.
